The target in assay [1] is T1, 人Siglec-15抗原 (Siglec-15蛋白胞外段) (human) (UniProt Q6ZMC9).
T1 sequence (looked up): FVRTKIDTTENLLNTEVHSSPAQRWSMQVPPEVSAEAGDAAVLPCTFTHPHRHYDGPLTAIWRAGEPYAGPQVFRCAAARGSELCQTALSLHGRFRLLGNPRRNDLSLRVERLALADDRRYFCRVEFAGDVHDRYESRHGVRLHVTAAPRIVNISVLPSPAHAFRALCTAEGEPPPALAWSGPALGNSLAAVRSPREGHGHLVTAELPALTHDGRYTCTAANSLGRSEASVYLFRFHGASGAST
Nature of the assay: ELISA, relative binding activity of HA-I purified by the method of Example 27; reference not given. (An ELISA detects its analyte on a solid surface through an enzyme-linked reagent.)

In assay [2] the target is T1, 人Siglec-15抗原 (Siglec-15蛋白胞外段) (human). Description: ELISA, relative binding activity of HA-I purified by the method of Example 30; reference not given.
For assay [3] the target is unchanged. Description: ELISA, relative binding activity of HA-I purified by the method of Example 31; reference not given.
Assay [4] shares this target. Description: ELISA, relative binding activity of HA-I purified by the method of Example 26; reference not given.
Assay [5] has the same target. Nature of the assay: ELISA, relative binding activity of HA-I purified by the method of Example 24; reference not given.
The target is the same in assay [6]. Description: ELISA, relative binding activity of HA-I purified by the method of Example 28; reference not given.
For assay [7] the target is unchanged. Description: ELISA, relative binding activity of HA-I purified by the method of Example 29; reference not given.
The target is the same in assay [8]. Nature of the assay: ELISA, relative binding activity of HA-I purified by the method of Example 33; reference not given.
For assay [9] the target is unchanged. Description: ELISA, relative binding activity of HA-I purified by the method of Example 32; reference not given.

B1: 抗Siglec-15单克隆抗体HA-I (人源化抗体分子, human IgG1/Ck) (antibody, V domains shown)
VH: QVQLVQSGAEVKKPGASVKVSCKASGYTFTDYNMFWVRQAPGQRLEWIGYIYPDNGGTGYNQNFKSKATLTVDNSASTAYMELSSLRSEDTAVYYCARSEYDYFDYWGQGTLVTVSS
VL: DIVLTQSPSSLSASVGDRVTITCRASQDISNYLNWYQQKPGKAVKLLIYYTSRLHSGVPSRFSGSGSGTDYTFTISSLQPEDIATYFCQQGNTLPLTFGQGTKVELKR
On to B1, for which the 结合活性(%) in [1] was 88%; in assay [2], 105%; in assay [3], 79%; in [4] it was 112%; in [5], 100%; in assay [6], 90%. Also, the figures for the 结合活性(%) in [7], in assay [8] and in assay [9] were 78%, 83% and 86%, respectively.

Source of the values: patent CN117736324A.
